Holding throughout (assay): pull-down
The target in assay [1] is MBP-NOP58 ΔNLS (human) (UniProt Q9Y2X3).
In assay [2] the target is T1, MBP fused to the C-terminal NLS IDR of NAP57 (92aa) (human).
T1 sequence (O60832 whole entry, looked up): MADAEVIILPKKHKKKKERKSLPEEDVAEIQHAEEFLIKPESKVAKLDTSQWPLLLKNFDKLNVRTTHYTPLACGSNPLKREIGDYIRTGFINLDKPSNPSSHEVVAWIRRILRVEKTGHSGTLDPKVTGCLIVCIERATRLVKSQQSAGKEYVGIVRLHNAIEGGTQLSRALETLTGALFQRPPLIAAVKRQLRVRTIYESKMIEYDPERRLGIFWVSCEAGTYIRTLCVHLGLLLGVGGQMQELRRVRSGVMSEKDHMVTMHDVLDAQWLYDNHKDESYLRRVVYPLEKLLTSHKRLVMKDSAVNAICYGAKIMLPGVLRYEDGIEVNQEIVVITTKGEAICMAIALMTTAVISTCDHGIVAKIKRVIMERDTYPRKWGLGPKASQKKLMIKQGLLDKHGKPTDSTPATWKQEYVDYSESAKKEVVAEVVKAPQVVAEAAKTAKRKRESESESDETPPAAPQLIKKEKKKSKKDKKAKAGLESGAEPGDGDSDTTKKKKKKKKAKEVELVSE

Assay [3] concerns the target fibrillarin F>S (six phenylalanines of the N-terminal GF-IDR replaced with serines) (human) (UniProt P22087).
Assay [4] deals with T2, MBP-GAR1 (full-length) (human, UniProt Q9NY12 1-217).
T2 sequence (looked up): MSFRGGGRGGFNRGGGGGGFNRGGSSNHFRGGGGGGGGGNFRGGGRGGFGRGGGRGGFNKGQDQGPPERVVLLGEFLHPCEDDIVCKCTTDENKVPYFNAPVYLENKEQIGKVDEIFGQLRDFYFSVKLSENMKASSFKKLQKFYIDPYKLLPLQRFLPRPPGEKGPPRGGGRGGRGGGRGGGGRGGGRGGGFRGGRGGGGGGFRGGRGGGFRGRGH

In assay [5] the target is T3, MBP-fibrillarin (full-length) (human, UniProt P22087 1-321).
T3 sequence (looked up): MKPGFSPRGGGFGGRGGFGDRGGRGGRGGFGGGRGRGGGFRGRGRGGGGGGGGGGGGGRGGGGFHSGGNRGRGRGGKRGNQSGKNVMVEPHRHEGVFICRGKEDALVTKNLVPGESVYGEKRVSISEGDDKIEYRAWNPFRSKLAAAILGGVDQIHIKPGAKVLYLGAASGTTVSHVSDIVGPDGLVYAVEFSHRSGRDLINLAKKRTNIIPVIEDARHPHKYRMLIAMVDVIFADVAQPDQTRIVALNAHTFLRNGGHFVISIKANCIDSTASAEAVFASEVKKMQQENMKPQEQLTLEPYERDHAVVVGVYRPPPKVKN

The target of assay [6] is fibrillarin F>S (six phenylalanines of the N-terminal GF-IDR replaced with serines) (human) (UniProt P22087). This is another data set of the same source.

Like-named read-outs stand apart in the source and are kept apart here.

Sequence of MBP-NOP58 ΔNLS (human) (Q9Y2X3 whole entry, stated change not applied, the tested form may be a part): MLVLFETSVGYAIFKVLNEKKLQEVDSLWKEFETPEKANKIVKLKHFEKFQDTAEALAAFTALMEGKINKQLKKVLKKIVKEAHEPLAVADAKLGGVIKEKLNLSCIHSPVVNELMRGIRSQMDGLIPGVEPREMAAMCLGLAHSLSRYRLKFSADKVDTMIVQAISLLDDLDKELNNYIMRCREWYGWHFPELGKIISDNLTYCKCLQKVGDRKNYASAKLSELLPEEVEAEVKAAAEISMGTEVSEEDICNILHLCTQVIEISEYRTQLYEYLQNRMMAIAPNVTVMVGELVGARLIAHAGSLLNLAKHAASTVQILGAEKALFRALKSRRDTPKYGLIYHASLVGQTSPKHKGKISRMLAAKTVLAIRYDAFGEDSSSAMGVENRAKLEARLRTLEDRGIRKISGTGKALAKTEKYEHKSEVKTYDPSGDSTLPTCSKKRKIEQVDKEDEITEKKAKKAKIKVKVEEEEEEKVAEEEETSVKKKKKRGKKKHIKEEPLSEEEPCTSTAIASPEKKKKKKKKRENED

B1: GFP-Nopp140 (phosphorylated) (natural protein)
chain: MADAGIRRVVPSDLYPLVLGFLRDNQLSEVANKFAKATGATQQDANASSLLDIYSFWLKSAKVPERKLQANGPVAKKAKKKASSSDSEDSSEEEEEVQGPPAKKAAVPAKRVGLPPGKAAAKASESSSSEESSDDDDEEDQKKQPVQKGVKPQAKAAKAPPKKAKSSDSDSDSSSEDEPPKNQKPKITPVTVKAQTKAPPKPARAAPKIANGKAASSSSSSSSSSSSDDSEEEKAAATPKKTVPKKQVVAKAPVKAATTPTRKSSSSEDSSSDEEEEQKKPMKNKPGPYSSVPPPSAPPPKKSLGTQPPKKAVEKQQPVESSEDSSDESDSSSEEEKKPPTKAVVSKATTKPPPAKKAAESSSDSSDSDSSEDDEAPSKPAGTTKNSSNKPAVTTKSPAVKPAAAPKQPVGGGQKLLTRKADSSSSEEESSSSEEEKTKKMVATTKPKATAKAALSLPAKQAPQGSRDSSSDSDSSSSEEEEEKTSKSAVKKKPQKVAGGAAPSKPASAKKGKAESSNSSSSDDSSEEEEEKLKGKGSPRPQAPKANGTSALTAQNGKAAKNSEEEEEEKKKAAVVVSKSGSLKKRKQNEAAKEAETPQAKKIKLQTPNTFPKRKKGEKRASSPFRRVREEEIEVDSRVADNSFDAKRGAAGDWGERANQVLKFTKGKSFRHEKTKKKRGSYRGGSISVQVNSIKFDSE
modifications: serines of the acidic serine repeats phosphorylated (expressed in insect cells to be fully phosphorylated)
The molecule B1 yielded a GFP-Nopp140 pulled down relative to WT MBP-NOP58 in assay [1] of 20%.

B2: Nopp140 (phosphorylated, hexa histidine tagged) (natural protein)
chain: B1 chain
modifications: serines of the acidic serine repeats phosphorylated (expressed in insect cells to be fully phosphorylated)
In turn, B2 yielded a Nopp140 pulled down relative to full-length NAP57 in assay [2] of 50%.

B3: GST-GAR1 (natural protein, human, UniProt Q9NY12 1-217, looked up)
chain: T2 sequence (looked up)
Turning to B3, the results for the reduction of binding relative to wild-type fibrillarin in assay [3] and in assay [6] were 35% and 40%, respectively. The binding result in assay [4] and in assay [5] was “binds” throughout.

The record behind these values is article doi:10.1101/2025.06.18.660405 (bioRxiv, 2025).
